Assay results published in US20210095027A1 (Xencor, published 2021).

Biological target: T1, human CD20 (human, UniProt P11836 1-297)
T1 sequence (looked up): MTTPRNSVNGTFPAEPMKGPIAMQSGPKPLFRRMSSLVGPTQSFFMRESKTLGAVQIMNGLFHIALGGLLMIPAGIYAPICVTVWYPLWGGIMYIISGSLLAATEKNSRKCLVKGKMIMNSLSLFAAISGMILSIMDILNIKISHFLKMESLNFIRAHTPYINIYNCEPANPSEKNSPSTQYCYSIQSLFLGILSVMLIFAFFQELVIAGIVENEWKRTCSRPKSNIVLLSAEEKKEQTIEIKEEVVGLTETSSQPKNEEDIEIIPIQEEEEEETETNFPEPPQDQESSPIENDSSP
Assay: cell-based or functional assay

EC50 of RTCC against Ramos cells with purified T cells from six healthy donors: 5.3 to 14.3 ng/mL
B1: XENP13676 (bispecific antibody)
chain 1: QVQLVQSGAEVKKPGASVKVSCKASGYTFTSYNMHWVRQAPGQGLEWMGAIYPGNGDTSYNQKFQGRVTITADKSISTAYMELSSLRSEDTAVYYCARSTYYGGDWYFNVWGAGTLVTVSSASTKGPSVFPLAPSSKSTSGGTAALGCLVKDYFPEPVTVSWNSGALTSGVHTFPAVLQSSGLYSLSSVVTVPSSSLGTQTYICNVNHKPSDTKVDKKVEPKSCDKTHTCPPCPAPPVAGPSVFLFPPKPKDTLMISRTPEVTCVVVDVKHEDPEVKFNWYVDGVEVHNAKTKPREEEYNSTYRVVSVLTVLHQDWLNGKEYKCKVSNKALPAPIEKTISKAKGQPREPQVYTLPPSREEMTKNQVSLTCDVSGFYPSDIAVEWESDGQPENNYKTTPPVLDSDGSFFLYSKLTVDKSRWEQGDVFSCSVMHEALHNHYTQKSLSLSPGK
chain 2: not shown
light: QIVLTQSPSSLSASVGDRVTITCRASSSVSYIHWFQQKPGKSPKPLIYATSNLASGVPVRFSGSGSGTDYTLTISSLQPEDFATYYCQQWTSNPPTFGGGTKVEIKRTVAAPSVFIFPPSDEQLKSGTASVVCLLNNFYPREAKVQWKVDNALQSGNSQESVTEQDSKDSTYSLSSTLTLSKADYEKHKVYACEVTHQGLSSPVTKSFNRGEC
EC50 of Jeko-1 target cell killing (RTCC) in the absence of rituximab: 24 ng/mL
EC50 of Jeko-1 target cell killing (RTCC) in the presence of 3 µg/ml rituximab: 51 ng/mL
EC50 of Jeko-1 target cell killing (RTCC) in the presence of 10 µg/ml rituximab: 93 ng/mL
EC50 of Jeko-1 target cell killing (RTCC) in the presence of 30 µg/ml rituximab: 162 ng/mL
EC50 of Jeko-1 target cell killing (RTCC) in the presence of 100 µg/ml rituximab: 387 ng/mL
